According to paper PMC4098917, “Assembly of the Type Two Secretion System in Aeromonas hydrophila Involves Direct Interaction between the Periplasmic Domains of the Assembly Factor ExeB and the Secretin ExeD” (PLoS ONE, 2014):

Legend:
[1] = target: dimerization domain (40 aa) of the Gal4 transcriptional activator protein (pBT-LGF2); assay: two-hybrid; bacterial two-hybrid (BacterioMatch, E. coli BM2H; bait pBT, target pTRG); minimum inhibitory concentration of carbenicillin (0-12.8 mg/mL), 0.1 mM IPTG, overnight at 30°C
[2] = target: T1, periplasmic domain of ExeB (bacterial two-hybrid fusion) (A. hydrophila, UniProt P45755 58-226); assay: two-hybrid; bacterial two-hybrid (BacterioMatch, E. coli BM2H; bait pBT, target pTRG); β-galactosidase activity of permeabilized cells, 0.02 mM IPTG; settings: partners not purified
T1 construct: periplasmic domain of ExeB, A. hydrophila, amplified from pGAD424-P-ExeB; Stood in pBT and in pTRG; also called P-ExeB; source: bacterial two-hybrid fusion (E. coli BM2H)
T1 sequence: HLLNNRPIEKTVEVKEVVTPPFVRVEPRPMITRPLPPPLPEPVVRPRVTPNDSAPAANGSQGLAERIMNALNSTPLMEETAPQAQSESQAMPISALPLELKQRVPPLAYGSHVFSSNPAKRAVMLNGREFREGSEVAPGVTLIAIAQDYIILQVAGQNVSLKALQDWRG

[3] = target: T2, N-His-tagged periplasmic domain of ExeD, purified (A. hydrophila, UniProt P31780 26-355); assay: fluorescence polarisation; steady state rotational anisotropy; F-labeled P-ExeB 50 nM, titration of P-ExeD 0-4000 nM, RT buffer, 21°C; apparent Kd from a rectangular hyperbola; settings: both partners purified
T2 construct: periplasmic domain of ExeD, A. hydrophila, in NdeI/XhoI of pET30a; the printed primers carry no His codons and no stop codon, so the tag may be the vector's C-terminal one (my surmise); also called P-ExeD; N-His-tagged-P-ExeD; source: E. coli BL21, purified (Ni-NTA, Resource S ion exchange)
T2 sequence: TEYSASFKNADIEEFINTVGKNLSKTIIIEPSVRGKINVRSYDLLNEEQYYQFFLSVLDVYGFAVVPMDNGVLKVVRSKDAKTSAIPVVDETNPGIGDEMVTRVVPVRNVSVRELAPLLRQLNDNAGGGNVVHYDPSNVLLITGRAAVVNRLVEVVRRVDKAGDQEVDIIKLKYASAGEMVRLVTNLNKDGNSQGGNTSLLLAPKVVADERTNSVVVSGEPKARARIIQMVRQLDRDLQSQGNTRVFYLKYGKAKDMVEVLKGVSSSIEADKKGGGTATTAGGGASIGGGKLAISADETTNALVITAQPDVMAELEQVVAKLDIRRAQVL

domain (90aa) of the mutant form of the Gal11 protein (pTRG-Gal11P) (domain or fragment)
MIC of carbenicillin [1]: 12.8 mg/mL

B1: periplasmic domain of ExeD (bacterial two-hybrid fusion) (domain or fragment)
chain: T2 sequence
notes: periplasmic domain of ExeD, A. hydrophila, amplified from pGAD424-P-ExeD; Stood in pTRG and in pBT; also called P-ExeD; full-length P-ExeD; source: bacterial two-hybrid fusion (E. coli BM2H)
fold β-galactosidase activity over cells with the empty vectors [2]: > 11 fold

B2: fluorescein-EX labeled N-His-tagged periplasmic domain of ExeB (domain or fragment)
chain: T1 sequence
modifications: fluorescein (Fluorescein-EX Protein Labeling kit), ~0.8 moles of dye per mole of protein
notes: periplasmic domain of ExeB, A. hydrophila, in pET30a; Same construct as m27, purified and labelled; also called F-labeled P-ExeB; fluorescein-EX labeled P-ExeB; source: E. coli BL21, purified (Ni-NTA, Resource S ion exchange)
Kd [3]: 1190 ± 160 nM
